Results taken from article PMC2615606.

B1: DUT Sp1Δ (dsDNA)
DNA 1: GTTCGGTGGGTGGTTCGGGGCTGGCTTG
DNA 2: CAAGCCAGCCCCGAACCACCCACCGAAC
B2: DUT Sp1 (-64 to -91) (dsDNA)
DNA 1: GGGCGGTGGGTGGGGCGGGGCTGGCGGG
DNA 2: CCCGCCAGCCCCGCCCCACCCACCGCCC

How the values were obtained:
[1] = target: T1, Sp1 (rhSp1) (UniProt P08047 1-785); experiment: competition
[2] = target: T1, Sp1 (rhSp1); experiment: EMSA

T1 sequence (P08047 whole entry): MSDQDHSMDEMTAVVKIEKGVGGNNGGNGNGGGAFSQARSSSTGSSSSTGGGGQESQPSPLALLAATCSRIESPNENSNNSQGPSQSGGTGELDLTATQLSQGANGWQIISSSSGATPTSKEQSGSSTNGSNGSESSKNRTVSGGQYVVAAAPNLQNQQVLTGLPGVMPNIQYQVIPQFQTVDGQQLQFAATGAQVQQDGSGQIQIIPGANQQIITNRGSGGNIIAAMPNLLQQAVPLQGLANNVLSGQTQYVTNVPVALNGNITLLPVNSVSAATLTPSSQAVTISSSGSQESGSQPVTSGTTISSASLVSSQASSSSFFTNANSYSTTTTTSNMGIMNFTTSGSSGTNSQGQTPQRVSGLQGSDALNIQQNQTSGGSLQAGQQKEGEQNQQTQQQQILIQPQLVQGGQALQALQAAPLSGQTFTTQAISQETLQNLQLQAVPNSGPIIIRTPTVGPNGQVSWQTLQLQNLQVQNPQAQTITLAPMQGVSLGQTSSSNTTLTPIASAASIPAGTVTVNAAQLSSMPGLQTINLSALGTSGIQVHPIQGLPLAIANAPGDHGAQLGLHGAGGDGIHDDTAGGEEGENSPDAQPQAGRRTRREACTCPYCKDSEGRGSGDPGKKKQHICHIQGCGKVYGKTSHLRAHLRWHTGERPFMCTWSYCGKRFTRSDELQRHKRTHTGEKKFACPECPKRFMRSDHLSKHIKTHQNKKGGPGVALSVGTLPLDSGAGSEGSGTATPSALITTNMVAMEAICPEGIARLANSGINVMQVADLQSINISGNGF

| Binder | binding result [1] | binding result [2] |
| --- | --- | --- |
| B1 | no binding | – |
| B2 | – | binds |
